Measurements: PMC5676948, “Inactivation mechanism of N61S mutant of human FMO3 towards trimethylamine” (Scientific Reports, 2017)
Positions count from the first letter of the chain named. Names and notes keep the numbering of the source.

Tests used:
[1] = biological target: T1, human flavin-containing monooxygenase 3 (hFMO3), N61S variant (Homo sapiens, UniProt P31513, N61S); test: stopped-flow anaerobic FAD reduction at […] nm, Kd from kobs vs [NADPH]; assay type: biochemical; conditions: read-out: Reduction / K d,NADPH /
T1 construct: gene FMO3
T1 sequence (P31513 2-532 N61S): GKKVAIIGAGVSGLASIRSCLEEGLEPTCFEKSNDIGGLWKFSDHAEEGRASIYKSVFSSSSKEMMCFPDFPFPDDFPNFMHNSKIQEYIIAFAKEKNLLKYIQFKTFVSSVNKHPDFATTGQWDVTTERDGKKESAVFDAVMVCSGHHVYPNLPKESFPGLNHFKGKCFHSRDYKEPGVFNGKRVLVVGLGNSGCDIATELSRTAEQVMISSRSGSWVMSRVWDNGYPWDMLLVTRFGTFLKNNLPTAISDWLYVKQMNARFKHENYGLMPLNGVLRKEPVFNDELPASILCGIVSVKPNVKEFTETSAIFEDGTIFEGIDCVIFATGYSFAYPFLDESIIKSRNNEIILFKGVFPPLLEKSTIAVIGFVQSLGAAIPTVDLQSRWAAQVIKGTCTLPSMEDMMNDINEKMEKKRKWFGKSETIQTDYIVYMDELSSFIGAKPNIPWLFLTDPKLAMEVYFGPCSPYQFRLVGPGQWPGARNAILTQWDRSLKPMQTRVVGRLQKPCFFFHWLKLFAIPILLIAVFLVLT

[2] = biological target: T2, human flavin-containing monooxygenase 3 (hFMO3), wild type (Homo sapiens, UniProt P31513); test: as above; assay type: biochemical; conditions: read-out: Reduction / K d,NADPH /
T2 construct: gene FMO3
T2 sequence (P31513 2-532): T1 sequence (P31513 2-532 N61S) with S60N

[3] = biological target: T2, human flavin-containing monooxygenase 3 (hFMO3), wild type; test: ITC (supported by CD and DSC thermal shifts and trypsin protection); assay type: binding
[4] = substrate: CC/C(=C(\c1ccccc1)c1ccc(OCCN(C)C)cc1)c1ccccc1; test: purified protein; conditions: FAD, NADPH
[5] = substrate: CN(C)CCCOc1nn(Cc2ccccc2)c2ccccc12; test: purified protein; conditions: FAD, NADPH
[6] = substrate: Cn1cc[nH]c1=S; test: purified protein; conditions: FAD, NADPH
[7] = substrate: CN(C)C; test: purified protein; assay type: biochemical, Homo sapiens; conditions: FAD, NADPH

NC(=O)C1=CN([C@@H]2O[C@H](COP(=O)(O)OP(=O)(O)OC[C@H]3O[C@@H](n4cnc5c(N)ncnc54)[C@H](OP(=O)(O)O)[C@@H]3O)[C@@H](O)[C@H]2O)C=CC1 [NADPH]
Kd [1]: 51.8 µM
Kd [2]: 0.3 µM

NC(=O)c1ccc[n+]([C@@H]2O[C@H](COP(=O)(O)OP(=O)(O)OC[C@H]3O[C@@H](n4cnc5c(N)ncnc54)[C@H](OP(=O)(O)O)[C@@H]3O)[C@@H](O)[C@H]2O)c1 [NADP^+]
Kd [3]: 3.7 µM

B1: human flavin-containing monooxygenase 3 (hFMO3), N61S variant (Homo sapiens; N61S) (protein)
chain: T1 sequence (P31513 2-532 N61S)
Km [4]: 14.8 ± 3.4 µM
kcat [4]: 0.00733 s⁻¹
kcat/Km [4]: 500 M⁻¹ s⁻¹
Km [5]: 417.3 ± 74.6 µM
kcat [5]: 0.0333 s⁻¹
kcat/Km [5]: 83.3 M⁻¹ s⁻¹
Km [6]: 8652.1 ± 351.6 µM
kcat [6]: 0.118 s⁻¹
kcat/Km [6]: 13.3 M⁻¹ s⁻¹

B2: human flavin-containing monooxygenase 3 (hFMO3), wild type (Homo sapiens) (protein)
chain: T1 sequence (P31513 2-532 N61S) with S60N
Km [7]: 21.7 ± 4.6 µM
kcat [7]: 0.045 ± 0.00333 s⁻¹
kcat/Km [7]: 2000 M⁻¹ s⁻¹
Km [6]: 14.9 ± 2.0 µM
kcat [6]: 0.14 s⁻¹
kcat/Km [6]: 9330 M⁻¹ s⁻¹
